Key:
HLA-A*01:01 [1] = assay: IEDB peptide-MHC binding, purified MHC/competitive/radioactivity; filed as Kd, often an IC50 or EC50 that approximates it; ≥ and ≤ were set here for values at or beyond the usual limits of such assays
HLA-B*57:01 [2] = assay: as above
HLA-B*58:01 [3] = assay: as above
HLA-A*24:02 = assay: as above; settings: source organism: Dengue virus 1 Singapore/S275/1990
HLA-A*26:01 [4] = assay: as above; settings: source organism: Dengue virus 1 Singapore/S275/1990
HLA-A*23:01 = assay: as above; settings: source organism: Dengue virus 1 Singapore/S275/1990
HLA-B*57:01 [5] = assay: IEDB peptide-MHC binding, purified MHC/direct/fluorescence; filed as Kd, often an IC50 or EC50 that approximates it; ≥ and ≤ were set here for values at or beyond the usual limits of such assays
HLA-B*58:01 [6] = assay: as above
HLA-B*15:17 [7] = assay: as above
HLA-A*26:01 [8] = assay: IEDB peptide-MHC binding, purified MHC/competitive/fluorescence; filed as Kd, often an IC50 or EC50 that approximates it; ≥ and ≤ were set here for values at or beyond the usual limits of such assays
HLA-A*02:01 [9] = assay: as above
HLA-B*27:03 = assay: as above
HLA-B*18:01 = assay: as above; settings: source organism: Reston ebolavirus
HLA-B*57:01 [10] = assay: as above
HLA-B*15:01 [11] = assay: as above; settings: source organism: Reston ebolavirus
HLA-B*46:01 = assay: as above
HLA-A*69:01 [12] = assay: as above
HLA-B*15:17 [13] = assay: as above
HLA-B*51:01 = assay: as above
HLA-B*39:01 [14] = assay: as above
HLA-A*03:01 [15] = assay: IEDB peptide-MHC binding, purified MHC/direct/fluorescence; filed as Kd, often an IC50 or EC50 that approximates it; ≥ and ≤ were set here for values at or beyond the usual limits of such assays
HLA-A*02:11 = assay: as above
HLA-A*68:02 = assay: as above
HLA-A*02:12 = assay: as above
HLA-A*24:03 = assay: as above
HLA-A*02:03 = assay: as above
HLA-A*02:19 = assay: as above
HLA-A*02:16 = assay: as above
HLA-B*53:01 = assay: IEDB peptide-MHC binding, purified MHC/competitive/radioactivity; filed as Kd, often an IC50 or EC50 that approximates it; ≥ and ≤ were set here for values at or beyond the usual limits of such assays
HLA-A*03:01 [16] = assay: IEDB peptide-MHC binding, purified MHC/competitive/fluorescence; filed as Kd, often an IC50 or EC50 that approximates it; ≥ and ≤ were set here for values at or beyond the usual limits of such assays; settings: source organism: Four Corners hantavirus
HLA-B*39:01 [17] = assay: IEDB peptide-MHC binding, purified MHC/direct/fluorescence; filed as Kd, often an IC50 or EC50 that approximates it; ≥ and ≤ were set here for values at or beyond the usual limits of such assays
HLA-A*26:01 [18] = assay: as above; settings: source organism: Giardia lamblia ATCC 50803
HLA-B*27:05 = assay: as above; settings: source organism: Giardia lamblia ATCC 50803
HLA-A*02:01 [19] = assay: as above; settings: source organism: Giardia lamblia ATCC 50803
HLA-A*01:01 [20] = assay: as above; settings: source organism: Giardia lamblia ATCC 50803
HLA-A*31:01 = assay: as above; settings: source organism: Giardia lamblia ATCC 50803
HLA-A*11:01 = assay: as above; settings: source organism: Giardia lamblia ATCC 50803
HLA-B*07:02 = assay: as above; settings: source organism: Giardia lamblia ATCC 50803
HLA-B*15:01 [21] = assay: as above; settings: source organism: Giardia lamblia ATCC 50803
HLA-A*69:01 [22] = assay: as above; settings: source organism: Giardia lamblia ATCC 50803
HLA-B*08:01 = assay: as above; settings: source organism: Giardia lamblia ATCC 50803
HLA-B*44:02 = assay: as above; settings: source organism: Giardia lamblia ATCC 50803
HLA-B*40:01 = assay: as above; settings: source organism: Giardia lamblia ATCC 50803
[23] = source organism: Dengue virus 1 Brazil/97-11/1997
[24] = source organism: Dengue virus 1 Singapore/S275/1990
[25] = source organism: Dengue virus 3 Martinique/1243/1999
[26] = source organism: Dengue virus 4 Philippines/H241/1956
[27] = source organism: Reston ebolavirus
[28] = source organism: Dengue virus 3 Sri Lanka/1266/2000
[29] = source organism: Four Corners hantavirus
[30] = source organism: Limestone Canyon virus
[31] = source organism: Escherichia coli O157:H7
[32] = source organism: Listeria monocytogenes FSL N3-165
[33] = source organism: Giardia lamblia ATCC 50803

For VSSWEEVPYL, the Kd (HLA-A*01:01 [1]; [23]) was 12400 nM, the Kd (HLA-B*57:01 [2]; [23]) was 384 nM and the Kd (HLA-B*58:01 [3]; [23]) was 256 nM.

Work on VTARWLWGF yielded a Kd (HLA-A*24:02) of 152 nM, a Kd (HLA-A*26:01 [4]) of 7070 nM and a Kd (HLA-A*01:01 [1]; [24]) of 4000 nM. For the same sequence, the Kd (HLA-B*57:01 [2]; [24]) was 1.6 nM, the Kd (HLA-B*58:01 [3]; [24]) was 38 nM and the Kd (HLA-A*23:01) was 134 nM.

Work on IARISALGF yielded a Kd (HLA-B*57:01 [5]; source organism: Brucella suis 1330) of 88 nM, a Kd (HLA-B*58:01 [6]; source organism: Brucella suis) of 14000 nM and a Kd (HLA-B*15:17 [7]; source organism: Brucella suis) of 3.6 nM.

With IASSGMLWMA the Kd (HLA-B*57:01 [2]; [25]) was 10400 nM and the Kd (HLA-B*58:01 [3]; [25]) was 1020 nM.

AVFQEEQGW showed a Kd (HLA-B*57:01 [2]; [26]) of 34 nM.

In the case of WFQRIPLQW, the Kd (HLA-A*26:01 [8]; [27]) is reported as at least 20000 nM, the Kd (HLA-A*02:01 [9]; [27]) is reported as at least 20000 nM and the Kd (HLA-B*27:03; [27]) is reported as at least 20000 nM. It also gave a Kd (HLA-B*18:01) of at least 20000 nM, a Kd (HLA-B*57:01 [10]; [27]) of at least 20000 nM and a Kd (HLA-B*15:01 [11]) of at least 20000 nM. The Kd (HLA-B*46:01; [27]) was at least 20000 nM, the Kd (HLA-A*69:01 [12]; [27]) was at least 20000 nM and the Kd (HLA-B*15:17 [13]; [27]) was at least 20000 nM. It also gave a Kd (HLA-B*51:01; [27]) of at least 20000 nM, a Kd (HLA-B*39:01 [14]; [27]) of at least 20000 nM and a Kd (HLA-A*03:01 [15]; [27]) of at least 20000 nM. The Kd (HLA-A*02:11; [27]) was at least 20000 nM, the Kd (HLA-A*68:02; [27]) was at least 20000 nM and the Kd (HLA-A*02:12; [27]) was at least 20000 nM. The Kd (HLA-A*24:03; source organism: Tai Forest virus - Cote d'Ivoire, Cote d'Ivoire, 1994) was 0.3 nM, the Kd (HLA-A*02:03; [27]) was at least 20000 nM and the Kd (HLA-A*02:19; [27]) was at least 20000 nM. It also gave a Kd (HLA-A*02:16; [27]) of at least 20000 nM.

Sequence AAVEDEEFW has a Kd (HLA-B*53:01; [28]) of 10.7 nM, a Kd (HLA-B*57:01 [2]; [28]) of 1100 nM and a Kd (HLA-B*58:01 [3]; [28]) of 4.41 nM.

KLKKKSAFY showed a Kd (HLA-A*03:01 [16]) of 45.1 nM, a Kd (HLA-A*26:01 [8]; [29]) of at least 20000 nM and a Kd (HLA-A*02:01 [9]; [29]) of at least 20000 nM. It also gave a Kd (HLA-B*27:03; [29]) of at least 20000 nM, a Kd (HLA-B*57:01 [10]; [29]) of at least 20000 nM and a Kd (HLA-B*46:01; [29]) of at least 20000 nM. For the same sequence, the Kd (HLA-A*69:01 [12]; [29]) was at least 20000 nM, the Kd (HLA-B*15:17 [13]; [29]) was at least 20000 nM and the Kd (HLA-B*51:01; [29]) was at least 20000 nM. The Kd (HLA-B*39:01 [14]; [29]) was at least 20000 nM, the Kd (HLA-A*02:11; [30]) was at least 20000 nM and the Kd (HLA-A*68:02; [30]) was at least 20000 nM. For the same sequence, the Kd (HLA-A*02:12; [30]) was at least 20000 nM, the Kd (HLA-A*24:03; [30]) was at least 20000 nM and the Kd (HLA-A*02:03; [30]) was at least 20000 nM. The Kd (HLA-A*02:19; [30]) was at least 20000 nM and the Kd (HLA-A*02:16; [30]) was at least 20000 nM.

LTSREVLLLT was tested, and the Kd (HLA-B*57:01 [2]; [23]) was 712 nM and the Kd (HLA-B*58:01 [3]; [23]) was 409 nM.

For FRGRGVFEL, the Kd (HLA-B*39:01 [17]; source organism: Influenza A virus (A/Moscow/10/1999(H3N2))) was 62.1 nM.

PTSYLDVDLH gave a Kd (HLA-B*57:01 [2]; [25]) of at least 37400 nM.

With LSSRAKLALD the Kd (HLA-B*57:01 [2]; [26]) was 7420 nM and the Kd (HLA-B*58:01 [3]; [26]) was 362 nM.

KSWPAAIDW gave a Kd (HLA-B*57:01 [5]; [31]) of 32 nM, a Kd (HLA-B*58:01 [6]; [31]) of 1.5 nM and a Kd (HLA-B*15:17 [7]; [31]) of 1.3 nM.

Work on WTRPRYIEI yielded a Kd (HLA-B*57:01 [5]; [32]) of at least 20000 nM, a Kd (HLA-B*58:01 [6]; [32]) of 429 nM and a Kd (HLA-B*15:17 [7]; source organism: Listeria monocytogenes) of 270 nM.

SHSIPNGLL was tested, and the Kd (HLA-A*03:01 [15]; [33]) was at least 20000 nM, the Kd (HLA-A*26:01 [18]) was at least 20000 nM and the Kd (HLA-B*27:05) was at least 20000 nM. For the same sequence, the Kd (HLA-A*02:01 [19]) was at least 20000 nM, the Kd (HLA-A*01:01 [20]) was at least 20000 nM and the Kd (HLA-A*31:01) was at least 20000 nM. For the same sequence, the Kd (HLA-A*11:01) was at least 20000 nM, the Kd (HLA-B*07:02) was at least 20000 nM and the Kd (HLA-B*15:01 [21]) was at least 20000 nM. The Kd (HLA-A*69:01 [22]) was at least 20000 nM, the Kd (HLA-B*58:01 [6]; [33]) was at least 20000 nM and the Kd (HLA-B*39:01 [17]; [33]) was 353 nM. The Kd (HLA-B*08:01) was at least 20000 nM, the Kd (HLA-B*44:02) was at least 20000 nM and the Kd (HLA-B*40:01) was at least 20000 nM.

For PASAWTLYAV, the Kd (HLA-B*57:01 [2]; source organism: Dengue virus 2 Jamaica/1409/1983) was 1110 nM.

Work on ILIGFLVLW yielded a Kd (HLA-B*57:01 [2]; [26]) of 1250 nM and a Kd (HLA-B*58:01 [3]; [26]) of 403 nM.

YATQTVGPW was tested, and the Kd (HLA-B*53:01; [26]) was 27.9 nM, the Kd (HLA-B*57:01 [2]; [26]) was 605 nM and the Kd (HLA-B*58:01 [3]; [26]) was 16.8 nM.

Reference: the Immune Epitope Database (IEDB)
